Experimental data from patent publication US20260250412A1 (GENEQUANTUM HEALTHCARE SUZHOU, published 2026).
Changes are numbered by the printed parent chain.

T1: recombinant extracellular domain of human TROP2 (human, UniProt P09758 27-274)
T1 construct: extracellular domain; also called Human Trop 2 ECD; Trop2 ECD
T1 sequence (looked up): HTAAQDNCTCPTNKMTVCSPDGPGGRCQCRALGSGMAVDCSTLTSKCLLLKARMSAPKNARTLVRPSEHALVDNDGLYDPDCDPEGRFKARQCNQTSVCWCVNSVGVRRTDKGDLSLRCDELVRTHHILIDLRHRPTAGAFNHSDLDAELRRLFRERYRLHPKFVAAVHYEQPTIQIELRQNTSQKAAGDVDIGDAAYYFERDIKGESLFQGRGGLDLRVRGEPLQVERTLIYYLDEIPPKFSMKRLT

B1: ADC-2 (antibody, human IgG1, kappa)
heavy: not shown
light: DIQLTQSPSSLSASVGDRVSITCKASQDVSIAVAWYQQKPGKAPKLLIYSASYRYTGVPDRFSGSGSGTDFTLTISSLQPEDFAVYYCQQHYITPLTFGAGTKVEIKRTVAAPSVFIFPPSDEQLKSGTASVVCLLNNFYPREAKVQWKVDNALQSGNSQESVTEQDSKDSTYSLSSTLTLSKADYEKHKVYACEVTHQGLSSPVTKSFNRGECGALPETGG
B2: GQhRS7 (antibody, human IgG1, kappa)
heavy: not shown
light: B1 light
notes: unconjugated
B3: Trodelvy (antibody, human IgG1, kappa)
heavy: not shown
light: DIQLTQSPSSLSASVGDRVSITCKASQDVSIAVAWYQQKPGKAPKLLIYSASYRYTGVPDRFSGSGSGTDFTLTISSLQPEDFAVYYCQQHYITPLTFGAGTKVEIKRTVAAPSVFIFPPSDEQLKSGTASVVCLLNNFYPREAKVQWKVDNALQSGNSQESVTEQDSKDSTYSLSSTLTLSKADYEKHKVYACEVTHQGLSSPVTKSFNRGEC
modifications: SN-38 conjugated; sites not stated
notes: also called IMMU-132
B4: hRS7 (from TRODELVY) (antibody, human IgG1, kappa)
heavy: not shown
light: B3 light
notes: expressed in HEK293F; also called Trodelvy's antibody
B5: Ab16 (antibody, human IgG1, kappa, V domains shown)
VH: QVQLQQSGSELKKPGASVKVSCKASGYTFTAAGMNWVKQAPGQGLKWMGWINTYTGEPTYTDDFKGRFAFSLDTSVSTAYLQISSLKADDTAVYFCARGGFGSSYWYFDVWGQGSLVTVSS
VL: DIQLTQSPSSLSASVGDRVSITCKASQDVSIAVAWYQQKPGKAPKLLIYSASYRYTGVPDRFSGSGSGTDFTLTISSLQPEDFAVYYCQQHYITPLTFGAGTKVEIKR
B6: Ab13 (antibody, human IgG1, kappa, V domains shown)
VH: B5 VH with A31N, Y54D, T55S
VL: B5 VL
B7: Datopotamab (antibody, human IgG1, kappa, V domains shown)
VH: QVQLVQSGAEVKKPGASVKVSCKASGYTFTTAGMQWVRQAPGQGLEWMGWINTHSGVPKYAEDFKGRVTISADTSTSTAYLQLSSLKSEDTAVYYCARSGFGSSYWYFDVWGQGTLVTVSS
VL: B5 VL with L4M, S20T, I31T, D60S, A100Q, V104L
notes: expressed in HEK293F; also called DS1062a Ab; DS1062's antibody

Assays:
[1] = molecular target: T1, recombinant extracellular domain of …; experiment: ELISA on plate-coated human Trop2 ECD (0.5 ug/mL), detection with goat anti-human Fc-HRP, TMB, absorbance at 450 nm
Protocol: Human Trop 2 ECD at concentration of 0.5 μg/mL was coated on 96-well plates at 4° C. for overnight. The plates were then blocked with 3% BSA-PBST for 1 h at room temperature. […] After incubation goat anti-human FC secondary antibody (HRP) (Sinobiological, SSA001) was added at a ratio of 1:100000 and incubated at room temperature for 60 min again. Following the wash, the plate was treated with TMB solution (Sigma, T0440) as an HRP substrate, and the reaction was stopped with 1 M H₂SO₄. The absorbance for each well was detected at 450 nm wavelength.

[2] = molecular target: T1, recombinant extracellular domain of …; experiment: SPR (Biacore T200), antibody captured on Protein A chip, TROP2 ECD as analyte, 1:1 model, 25 C
Protocol: Binding kinetics and affinity analysis were performed. Surface Plasmon Resonance (SPR) analysis was performed on a Biacore T200 (GE healthcare) with a Sensor Chip Protein A (GE healthcare) following manufacturer's instructions. All measurements were performed at 25° C. in the HBS-EP⁺ buffer (10 mM HEPES, pH 7.4, 150 mM NaCl, 3 mM EDTA, and 0.05% surfactant P20). About 110-140 RU (Resonance unit) of each of the purified antibodies was captured on flow cells 2 and 4 (i.e., the reaction surface) of the sensor chip, respectively. Flow cells 1 and 3 were treated with the HBS-EP⁺ buffer to serve as reference surfaces.
Serial dilutions of the recombinant extracellular domain of human TROP2 (i.e., the analyte) (Acrobio system) (243, 81, 27, 9, 3, 1, 0.333, and 0.111 nM, respectively) were prepared in HBS-EP⁺ buffer. Capturing of the antibodies was followed by a three-minute injection (association phase) of serial dilutions of TROP2 at a flow rate of 30 μL/min and ten minutes of buffer flow (dissociation phase). The chip surface was regenerated by two pulses of 30-second injection of 10 mM Glycine-HCl pH 1.5 at a flow rate of 50 μL/min. The collected data were processed on a Biacore T200 Evaluation software using methods known in the art, comprising the following steps: (1) setting the response on the y-axis and the start of the injection on the x-axis to zero, (2) performing double referencing by firstly subtracting the reference surface data from the reaction surface data to get the analyte injection curves, and then subtracting the buffer injection curves from the analyte injection curves, and (3) performing the kinetic analysis using the 1:1 binding model with a global fit.

Row | Binder | EC50 (read off the curve) [1] [µg/mL] | Kd [2] [nM]
1 | B1 | ~0.02 | 
2 | B2 | ~0.02 | 
3 | B3 | ~0.02 | 
4 | B4 |  | 1.28
5 | B5 |  | 13.1
6 | B6 |  | 8.16
7 | B7 |  | 13
